Here are results for four sequences from article PMC3790847.

The target of this data set is T1, Fur (ferric uptake regulator) (Shewanella piezotolerans WP3) (UniProt B8CQZ2).
T1 sequence: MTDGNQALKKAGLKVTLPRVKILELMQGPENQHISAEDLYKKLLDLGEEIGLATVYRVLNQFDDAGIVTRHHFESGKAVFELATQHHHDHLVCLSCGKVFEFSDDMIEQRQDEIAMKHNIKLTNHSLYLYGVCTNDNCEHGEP
Description: EMSA. The settings on record: 40 mM KCl, 12.5 mM Tris pH 7.5, 125 uM MnCl2, 1.25 mM MgCl2, 5% glycerol, 0.5 mM DTT, 0.01% BSA, 50 ug/ml salmon sperm DNA, 20 C, 30 min; ~0.2 pmol probe and …. In general terms: A gel shift assay detects complexes by their altered migration in electrophoresis.

Consider “ATAGAGGGGAGCCATAACGGCGAAGGTTACATGGAACTCACCGGCTACTAAGCCGTAACAACCACTCAAACATAAGCTTTATGAAGTATGTAATTGCATTCAAAAAGCAATAGATAAGAATAATTATCATTTACTAAGCTTATGAATATCTTGGATATTTAATGTAGCGCAAGCTAACATTTCGAGTGGACAAAATTCAAACAAGCTTCTAGTCTTTATTGGTAAATTTGAGAACTAGATCACCCCCTAAAAGTTGATCTTGGTCGAT (double strand) [napD (swp4456) promoter]”, for which the binding result is on record as “binds”.
To “CAGGCTGTAATTGACCTTTTTACACGCAGCAAATAACTGCTTTTTTTGCTGTTCATCAAGTAAAGAGATGAGGGTTCCCGGCACGTTACATTCCTTGGCTTGATAATAATCAAGAGGTGAAGTTTGCTATTCAAGATATAGTGCAAATGATAATCATTATTAATAAAAGTGCAACATATAAAGGGAGCGATTATGGAAGCGATAAGTCCTGCTTTTCGATGGATAAGCGTGATAGCGA (double strand) [Crp-like regulator (swp3806) promoter]” belongs “binds”.
For “TGACCTTAATCACATAAAGCATCTAAAACACCTGCTAAAAATTACGCTGTTAGTTAGCCTTAGAGGTGGAAATAAAATTCCACACACTAAATAAGGGTAAATGAGATTTGTTCTCAAACTAATTCCCTTTTTAGTGATGATTAAAAAACTATTGCAGGGACAAAAATGATGAAATTTTTCAACTTAAGCGCGACTTCAAAAGCGCTACTTACGGCAGGGGTGCTTTCGTTAGCAGTTTCTGGCTGTAGTGGC (double strand) [omcA (swp3277) promoter]”, the binding entry was “binds”.
Turning to “TTATTACGTGCAATAAGAAGCTTTAACTTTGCTGAGATAAACAATGAAAGAGGAGTTTCTATCAAACTTTAAATGAATGATACAGCTTGATTTGTTTGTGATCTTTTTGCTTTTGATGGTTACAGGTTTGTTAGTGTTGTGCGCGAGTTCACATTGACAATGTAAATACACGTAAAGAAGTATGAATAAAAACAATTCTCATTTATATTGCAGCCAATTATTAAATGTAGCTTTCATTTTTGGGGTTGGTTATGTCTTTTCAGGCGTCTT (double strand) [TonB receptor (swp5150) promoter]”, the binding entry is on record as “binds”.
